Reference: publication PMC6628828

Key:
[1] = target: glutathione transferase P1-1 C47S mutant (human); test: cross-linking
[2] = target: glutathione transferase P1-1 C47S mutant (human); test: ESI-MS
[3] = target: glutathione transferase P1-1 C101S mutant (human); test: cross-linking
[4] = target: glutathione transferase P1-1 C101S mutant (human); test: ESI-MS

relative abundance of peak E (C47S dimer + 2×[Pt(NH3)]) [1] [%]	relative abundance of peak F (C47S dimer + 2×[PtCl2] + [Pt(NH3)2]) [1] [%]	relative abundance of peak C (C47S dimer) [2] [%]	relative abundance of peak L (C101S dimer + 2×MeOH) [3] [%]	relative abundance of peak C (C101S dimer) [4] [%]	Substance
54	24	5	–	–	glutathione transferase P1-1 C47S mutant (enzyme)
–	–	–	18	5	glutathione transferase P1-1 C101S mutant (enzyme)
